Assay results as given in US20090291081A1 (AbbVie / Abbott, published 2009).
Positions count from the first letter of the chain named.

T1: human IL-1α (human, UniProt P01583 113-271)
T1 sequence (looked up): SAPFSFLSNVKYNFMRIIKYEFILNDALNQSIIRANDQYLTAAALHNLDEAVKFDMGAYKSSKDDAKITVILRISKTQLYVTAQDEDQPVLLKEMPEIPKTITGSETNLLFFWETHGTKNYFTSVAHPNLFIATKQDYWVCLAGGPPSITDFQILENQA

B1: ABT2-13 (other)
VH: EVQLLESGGGLVQPGGSLRLSCAASGFTFRDYVMYWARQAPGKGLEWVSRIDPMGSSTYYADSVKGRFTISRDNSKNTLYLQMNSLRAEDTAVYYCAKPEGNFDYWGQGTLVTVSS
B2: ABT2-65-17/ABT1-212 hu IgG1/K wt (bispecific antibody, V domains shown)
VH: EVQLLESGGGLVQPGGSLRLSCVASGFTFEDYQMGWVRQAPGKGLEWVSSISAMGNRTYYADSVKGRFTISRDDSKNTLYLQMNSLRAEDTAVYYCAQNLVRLGRSRWMFDYWGQGTLVTVSS
VL: DIQMTQSPSSLSASVGDRVTITCRASQRINGNLRWYQQKPGKAPKLLIYSVSQLQSGVPSRFSGSGSGTDFTLTISSLQPEDFATYYCQQGYDWPPTFGQGTKVETKR
B3: ABT2-65 (other)
VH: B2 VH with V23A, Q98K, L103T, G104Q, R105S, S106K, R107M
B4: ABT2-65-79 (other)
VH: B2 VH with E89G, L118M
notes: VH dAb
B5: ABT2-65-113 (other)
VH: B2 VH with V23A, E30V, D31Q
notes: VH dAb
B6: ABT2-65-8 (other)
VH: B2 VH with V23A, L103M, G104D, R105S, S106R
B7: ABT2-65-47 (other)
VH: EVQLLESGGGLVQPGGSLRLSCAASGFTFEDYQMGWVRQAPGKGLEWVSSISAMGNRTYYADSVKGRFTISRDDSKNTLYLQMNSLRAEDTAVYYCAKWRKRTQSKLGYFDYWGQGTLVTVSS
notes: VH dAb
B8: ABT2-65-154 (other)
VH: B2 VH with V23A, Y59H, L103I, G104R, S106T, R107K
notes: VH dAb
B9: ABT2-65-166 (other)
VH: B2 VH with V23A, N56G, D74N
B10: ABT2-65-140 (other)
VH: B2 VH with V23A, Q98E, R102K, L103I, G104S, S106R, R107H
notes: VH dAb
B11: ABT2-65-89 (other)
VH: B2 VH with L100M
notes: VH dAb
B12: ABT2-65-81 (other)
VH: B2 VH with D31E
notes: VH dAb
B13: ABT2-65-6 (other)
VH: B2 VH with V23A, L103T, G104Q, R105S, S106K, R107M
notes: VH dAb
B14: ABT2-65-85 (other)
VH: B2 VH with L5M, T69A, E89K
notes: VH dAb
B15: ABT2-65-48 (other)
VH: B7 VH with R100Q, K101M
notes: VH dAb
B16: ABT2-65-82 (other)
VH: B2 VH with Q13R, S75P
notes: VH dAb
B17: ABT2-65-7 (other)
VH: B2 VH with V23A, M54T, L103T, G104R, R105I, S106K, R107M
notes: VH dAb
B18: ABT2-69 (other)
VH: EVQLLESGGGLVQPGGSLRLSCAASGFTFTGYDMAWVRQAPGKGLEWVSVIYAYGESTYYADSVKGRFTISRDNSKNTLYLQMNSLRAEDTAVYYCAKVYSNQFDYWGQGTLVTVSS
B19: ABT2-72 (other)
VH: B18 VH with T30R, G31A, A35G, Y54W, E56T, V99T, Y100S, N102D, Q103G
B20: ABT2-60 (other)
VL: DIQMTQSPSSLSASVGDRVTITCRASQSIRVFLSWYQQKPGKAPKLLIYNASNLQSGVPSRFSGSGSGTDFTLTISSLQPEDFATYYCQQRALYPTTFGQGTKVEIKR
notes: VK dAb
B21: ABT2-61 (other)
VL: B20 VL with N53H
notes: VK dAb
B22: ABT2-59 (other)
VL: B20 VL with R30N
notes: VK dAb
B23: ABT2-62 (other)
VL: B20 VL with R30Q, V31T, F32Y
notes: VK dAb
B24: ABT2-108-533X (other)
VH: EVQLLESGGGLVQPGGSLRLSCAASGFTFADEGMMWVRQAPGKGLEWVSRIGQDGKNTYYADSVKGRFTISRDNSKNTLYLQMNSLRAEDTAVYYCAKYTGRILGHHLFDYWGQGTLVTVSS
B25: ABT2-108-538X (other)
VH: B24 VH with G52T, Q53Y, D54S
B26: ABT2-108-537X (other)
VH: B24 VH with A61R, D62M, S63D
B27: ABT2-108-533x/ABT1-122 hu IgG1/K wt (bispecific antibody, V domains shown)
VH: B24 VH
VL: DIQMTQSPSSLSASVGDRVTITCRASQPIWTELNWYQQKPGKAPKLLIYGSSSLQSGVPRFSGSGSGTDFTLTISSLQPEDFATYYCQQFAYFPATFGQGTKVEIKR
B28: ABT2-76 (other)
VL: DIQMTQSPSSLSASVGDRVTITCRASQSIDRWLAWYQQKPGKAPKLLIYRGSILQSGVPSRFSGSGSGTDFTLTISSLQPEDFATYYCQQVAFWPPTFGQGTKVEIKR
B29: ABT2-108/ABT1-122-505 hu IgG1/K wt (bispecific antibody, V domains shown)
VH: EVQLLESGGGLVQPGGSLRLSCAASGFTFAEYTMMWVRQAPGKGLEWVSRIGQDGKNTYYADSVKGRFTISRDNSKNTLYLQMNSLRAEDTAVYYCAKYTGRVGVHHLFDYWGQGTLVTSS
VL: DIQMTQSPSSLSASVGDRVTITCRASQPIWTELNWYQQKPGKAPKLLIYGSSSLQSGVPSRFSGSGSGTDFTLTISSLQPEDFATYYCKQFAYFPATFGQGTKVEIKR
B30: ABT2-108/ABT1-122-556 hu IgG1/K wt (bispecific antibody, V domains shown)
VH: B29 VH
VL: B29 VL with Y87H, K89Q
B31: ABT2-108-620x/ABT1-122-750MT hu IgG1 wt (bispecific antibody, V domains shown)
VH: B24 VH with D31E, G33S, M34W, A61R, D62E, S63D, L104M
VL: B29 VL with R24S, P28H, L33M, N34S, A43T, S52A, L54R, S56K, A96N
B32: ABT2-108/ABT1-122-508 hu IgG1/K wt (bispecific antibody, V domains shown)
VH: B29 VH
VL: B29 VL with S56R, K89Q
B33: ABT2-108/ABT1-122-554 hu IgG1/K wt (bispecific antibody, V domains shown)
VH: B29 VH
VL: B29 VL with K89Q, G101E
B34: ABT2-108-620x/ABT1-122-750M hu IgG1 wt (bispecific antibody, V domains shown)
VH: B24 VH with D31E, G33S, M34W, A61R, D62E, S63D, L104M
VL: B29 VL with R24S, P28H, L33M, N34S, S52A, L54R, S56K, A96N
B35: ABT2-108/ABT1-122-555 hu IgG1/K wt (bispecific antibody, V domains shown)
VH: B29 VH
VL: B29 VL with A43T, K89Q
B36: ABT2-108-538x/ABT1-122-555 hu IgG1/K wt (bispecific antibody, V domains shown)
VH: B24 VH with G52T, Q53Y, D54S
VL: B29 VL with A43T, K89Q
B37: ABT2-108-521/ABT1-122-511 hu IgG1/K wt (bispecific antibody, V domains shown)
VH: B24 VH with D31E, E32Y, G33T
VL: B29 VL with S56R
B38: ABT2-108-620x/ABT1-122-512 huIgG1/K wt (bispecific antibody, V domains shown)
VH: B24 VH with D31E, G33S, M34W, A61R, D62E, S63D, L104M
VL: B29 VL with S52A, S53K, L54R, S56R

Legend:
human IL-1β [1] = target: T2, human IL-1β (human, UniProt P01584 117-269); assay: cell-based or functional assay
human IL-1β [2] = target: T2, human IL-1β; assay: IC50 column of Table 63; receptor binding assay presumed
human IL-1α = target: T1, human IL-1α; assay: cell-based or functional assay
human IL-1β [3] = target: human IL-1β (human, UniProt P01584 117-269); assay: cell-based or functional assay; remark: listed apart in the source

| Binder | ND50 (human IL-1β [1]) [nM] | IC50 (human IL-1β [2]) [nM] | IL-1α IC50 (human IL-1α) [nM] | IL-1β IC50 (human IL-1β [3]) [nM] |
| --- | --- | --- | --- | --- |
| B1 | 1000 | 175 | – | – |
| B2 | – | – | 100 | – |
| B3 | 505 | 100 | – | – |
| B4 | 2 | 6 | – | – |
| B5 | 3 | 3.3 | – | – |
| B6 | 3 | 10 | – | – |
| B7 | 80 | 20 | – | – |
| B8 | 1.5 | 3 | – | – |
| B9 | 4 | 4 | – | – |
| B10 | 1 | 2 | – | – |
| B11 | 2 | 10 | – | – |
| B12 | 2 | 10 | – | – |
| B13 | > 1000 | 30 | – | – |
| B14 | 2 | 7 | – | – |
| B15 | 80 | 20 | – | – |
| B16 | 2 | 8 | – | – |
| B17 | 200 | 30 | – | – |
| B18 | > 10000 | – | – | – |
| B19 | > 10000 | – | – | – |

| Binder | ND50 (human IL-1β [1]) [nM] | IC50 (human IL-1β [2]) [nM] | IL-1α IC50 (human IL-1α) [nM] | IL-1β IC50 (human IL-1β [3]) [nM] |
| --- | --- | --- | --- | --- |
| B20 | > 1000 | 1000 | – | – |
| B21 | > 1000 | 1000 | – | – |
| B22 | > 1000 | 700 | – | – |
| B23 | > 1000 | 1000 | – | – |
| B24 | 5 | – | – | – |
| B25 | 5 | – | – | – |
| B26 | 206 | – | – | – |
| B27 | – | – | 1000 | – |
| B28 | 500 | – | – | – |
| B29 | – | – | 2000 | 20 |
| B30 | – | – | 150 | 15 |
| B31 | – | – | 10.1 | 0.00482 |
| B32 | – | – | 400 | 20 |
| B33 | – | – | 150 | 9 |
| B34 | – | – | 18.5 | 0.00555 |
| B35 | – | – | 70 | 7 |
| B36 | – | – | 25 | 0.015 |
| B37 | – | – | 150 | 0.16 |
| B38 | – | – | 150 | 0.006 |
